Data taken from the supplement of paper PMC11865577.

Columns and labels:
Assay in all cases: pull-down binding Z-score (relative to library population); higher = stronger binding
[1] = system: TO-N3 (biotin conjugate); conditions: RNA library: Library-2
Summary of the method: (§1)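 Heat-folded RNA library (1 μg, Cy5 or Cy3 end label, phosphate/NaCl/KCl buffer) was captured for 60 min at 25 °C on streptavidin beads displaying 100 pmol of biotin-conjugated small molecule, then washed three times. The bound fraction, eluted in hot SDS, was hybridised to a DNA barcode microarray at 55.5 °C for 20 h. Z-scores for binding were taken against the library mean and standard deviation after beads-only subtraction and trimmed averaging of replicate barcoded probes.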

[2] = system: TO-3-N3-2 (biotin conjugate); conditions: RNA library: Library-2
Summary of the method: as §1

[3] = system: G-clamp-N3 (biotin conjugate); conditions: RNA library: Library-1 (pre-miRNA loops + repeats)
Summary of the method: as §1

[4] = system: TO-3-N3 (biotin conjugate); conditions: RNA library: Library-2
Summary of the method: as §1

[5] = system: TO-N3-2 (biotin conjugate); conditions: RNA library: Library-2
Summary of the method: as §1

Sequence	pull-down binding Z-score [1]	pull-down binding Z-score [2]	pull-down binding Z-score [3]	pull-down binding Z-score [4]	pull-down binding Z-score [5]
GUGUCUGGCCCCAGCAGCCCAGACU [hsa-mir-6751]	0.766	-0.171	-0.568	0.258	1.39
AGGUUUGUGUCCAAUACAGUCCACACCU [hsa-mir-3200]	-0.879	-0.367	-0.861	-0.745	-0.572
CCCUCAUAUGGCAGUUGGCGAGGGCCCAGUGAG [hsa-mir-6769a]	1.33	0.582	2.45	0.974	1.53
CUCUCGUGUCCACUAGCAGGCAGGUUUUCUGACACAGG [hsa-mir-604]	-0.0789	0.313	0.743	-0.343	0.566
CCGCCCUCGUGUCUGUGGCGGUGG [hsa-mir-663a]	0.334	-0.231	0.239	0.171	0.679
GCAUUUUAUCUAAGAUACACACAAAGCAAAUGC [hsa-mir-4439]	0.118	0.179	-1.12	0.441	-0.81
CUGGGAGGUGUGAUCCUGUGCUUCCUGG [hsa-mir-3689a]	0.863	0.507	-0.339	0.678	1.15
GCGGGGAACGAGGCCGUCGGCCAUUUUGUG [hsa-mir-632]	1.59	0.912	1.04	1.2	1.58
UGUUCGUUUUGCUCAUGUCGAAUC [hsa-mir-487b]	-0.701	-0.391	-0.817	-0.794	-0.133
UGGAUUUGAAAUGGUCCCACUCCUGACGAUCCU [hsa-mir-6748]	-0.0778	-0.155	-0.524	-0.358	0.335
GGAGACACUUUCACUAUAUAUAGUGGCUCC [hsa-mir-3156-2]	-1.34	-0.571	-0.175	-0.948	-1.03
UGCAGUGCUGGGCAUGGGCUUCUCG [hsa-mir-3677]	1.49	0.328	0.689	1.07	1.54
UCGCCUAGGGCUCUGAGCAGGGCA [hsa-mir-211]	1.72	0.463	1.4	1.36	1.47
AAGAGGAGGUGGUUGUUUUCCUCCUCUU [hsa-mir-627]	0.944	0.625	-0.0833	0.432	1.15
AAAAUUCAUGGCCUACAGCUGCCUCUUGCCAAACUGCACUGGAUUUU [hsa-mir-5010]	-0.482	-0.176	-1.45	-0.25	0.111
GAACCCAAGAAAAGCUGACUUGGAGGUCCC [hsa-mir-4667]	1.47	0.578	-0.432	1.21	1.27
AUGUGAUUGCUGUCCCAAACUCAUGU [hsa-mir-135b]	-0.126	0.00564	-0.794	-0.305	-0.0979
AACUCCUGCGAGUCCCUGGAGUU [hsa-mir-1258]	-0.0874	-0.146	0.214	0.16	-0.163
CAUUACUAAACUCAGUAAUG [hsa-mir-451b]	-1.23	-0.862	0.93	-0.822	-1.68

Sequence	pull-down binding Z-score [1]	pull-down binding Z-score [2]	pull-down binding Z-score [3]	pull-down binding Z-score [4]	pull-down binding Z-score [5]
GCCAGUGUUCAAGGGCCCCUCCUCUAGUACUCCCUGUUUGUGUUCUGCCACUGA [hsa-mir-6857]	1.1	0.527	-0.797	0.324	1.37
UUUCAGAUAACUCGGGA [hsa-mir-4320]	0.116	-0.229	-0.732	0.173	0.00433
GCUCCCAACCAACCACUUCCACAUGUUUUGCUGGU [hsa-mir-4451]	0.244	0.239	-1.34	0.136	0.308
CAGGGAACUUUAAAACC [hsa-mir-4324]	0.483	0.387	0.493	0.41	0.306
UUUGCCAAUAAAAGUAAUGACAAA [hsa-mir-548ah]	0.226	0.181	-1.16	0.507	-0.39
AUCAAGAAAAGAUUUGGUGUUCUUGAU [hsa-mir-4782]	-0.513	-0.112	1.36	-0.152	-0.784
AAGUCCGGCUCCAGAACCUGGACACCGCUCAG [hsa-mir-4638]	0.898	0.379	-1.24	0.52	1.09
UAGUACAGGUGAGAUUGUACUG [hsa-mir-3920]	-0.888	-0.323	0.5	-0.707	-0.564
UCUGUUUGUUUUCUCUUAAACA [hsa-mir-519d]	-0.828	-0.553	-0.0316	-0.418	-0.847
AGAUGUGUUUCCAUUCCACUAUCAUAAU [hsa-mir-365a]	-0.0846	-0.128	-0.718	-0.141	-0.292
UGUUCAUGUCUCUCUGUGCACAGGGGACGAGAGUCA [hsa-mir-4420]	-0.35	-0.232	0.39	-0.612	0.762
UCUUAGCACGGGGUCUAAGG [hsa-mir-4747]	-0.33	-0.0231	0.0593	-0.188	-0.257
CAGCCAUGACCUGACCUUCUGUCUG [hsa-mir-4677]	-0.0686	-0.165	-0.499	-0.163	0.513
UGUCAUUACUUUUAACUGUA [hsa-mir-548h-5]	1.07	0.219	-0.935	1.2	-0.469
UGAGGAGCUUAGCAAGUAGCUAAGGCCAGA [hsa-mir-4517]	0.339	-0.393	0.384	-0.194	1.1
UGGUGGUGAAUUCAUGAGUCGCCA [hsa-mir-3115]	-0.671	-0.498	0.372	-0.509	-0.62
GAGCUGGAAGGAGUGGGCCUGGCUC [hsa-mir-6847]	0.634	0.387	4.26	0.4	1.45
CGUGCGCCAGUGGAG [hsa-mir-6089-2_6089-1]	0.573	-0.139	-0.0599	0.0799	0.982
AAGGCGGGUGGUGCUCAGAUCGCCU [hsa-mir-326]	0.274	0.00254	0.799	-0.0387	0.779
